In US20230123431:

Tests used:
[1] = target: T1, Kgd2p (lipoate-bound subunit of alpha-ketoglutarate dehydrogenase, KGDC), P19262
T1 chain: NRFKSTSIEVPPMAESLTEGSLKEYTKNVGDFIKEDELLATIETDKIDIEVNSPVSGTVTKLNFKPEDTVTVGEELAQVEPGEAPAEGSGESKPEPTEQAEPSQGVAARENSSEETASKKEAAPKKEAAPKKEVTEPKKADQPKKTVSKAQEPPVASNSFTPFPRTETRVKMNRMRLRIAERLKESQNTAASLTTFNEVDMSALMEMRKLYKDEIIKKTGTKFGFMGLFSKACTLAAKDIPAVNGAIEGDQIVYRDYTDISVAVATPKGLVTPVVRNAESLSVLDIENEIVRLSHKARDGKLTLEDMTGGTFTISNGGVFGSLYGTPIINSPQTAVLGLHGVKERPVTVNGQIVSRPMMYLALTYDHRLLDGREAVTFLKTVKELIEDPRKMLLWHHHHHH

[2] = target: T2, Lat1p (lipoate-bound subunit of pyruvate dehydrogenase, PDH), P12695
T2 chain: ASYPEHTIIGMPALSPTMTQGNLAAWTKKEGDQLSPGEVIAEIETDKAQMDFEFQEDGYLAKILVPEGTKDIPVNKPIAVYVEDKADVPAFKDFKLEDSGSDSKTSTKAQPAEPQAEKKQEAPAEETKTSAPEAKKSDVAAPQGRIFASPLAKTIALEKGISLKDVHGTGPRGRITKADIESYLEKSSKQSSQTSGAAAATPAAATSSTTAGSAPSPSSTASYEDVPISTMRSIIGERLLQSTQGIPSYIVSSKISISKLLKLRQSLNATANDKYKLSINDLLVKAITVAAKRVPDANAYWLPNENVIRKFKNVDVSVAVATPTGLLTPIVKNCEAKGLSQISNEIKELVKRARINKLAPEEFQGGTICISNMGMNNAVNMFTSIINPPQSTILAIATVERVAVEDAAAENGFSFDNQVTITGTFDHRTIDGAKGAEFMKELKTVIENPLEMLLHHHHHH

[3] = target: T3, Gcv3p (H protein of the glycine cleavage system), lipoylated
T3 chain: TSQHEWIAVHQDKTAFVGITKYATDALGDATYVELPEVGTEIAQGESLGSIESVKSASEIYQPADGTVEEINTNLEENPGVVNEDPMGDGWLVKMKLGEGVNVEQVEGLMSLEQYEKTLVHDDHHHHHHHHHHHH

B1: lipoamidase from Enterococcus faecalis (EfLPA) (protein)
chain: MLSLRQSIRFFKPATRTLCSSRYLLQQKPMLAQESILETTVQTETESVTTETSQTVANLESETTSQTVMQEKESSSAIAESSSRNVVAVTTETTNEIQNSGTDGKAVSAESVFSEADYKQATALELATLVREKKVTSEELVKIALAITKRENPTLNAVITLREEAALTEAKALQDTGQPFLGVPLLLKGLGQSLKGESNTNGFGFLRDQVAGGTSTFVKALQNAGFIIIGQTNYPELGWKNISDSKLYGVSVNPWNPNHYSGGSSGGAGASVAAAFVPIASGSDAGGSIRIPASWTGTVGLKPSRGVIIGNSNSAKGQTVHFGLSRTVADTNALFETLLTKKDLPAGHLSQAQPIAYTTESPAGTPVSAEAKEAVAEAVAFLKDQGYTLVEVKHPVDGERLMKNYYTVAAGSAGIADFMARQKLKRPLERNDVELLTWALFQTGKNITSEETTAAWTDIALQAQAMDEFYQQYPILLTPTTAATAPSIDNPLLKPEHAAQMEKIDQLSPAEQKQLIYDQWLTAFTYTPFTQQANLFGHPALSVPTYVSKEGLPLGIQFNSALNEDRTLLQLGALFENNHKINQPHVEEPDKDKEPDASGEPEKDKDPNASGEPDKDKEPDASGEPDKDKEPDASGEPDKDKEPDASGKPDKDKETKTSEGPIEGKDQNQNPDKAGKTTSGSSLDNSLNSSANQGTKSTESTHAFSNKSMIGKQEQLPKKVLPKAGAEVPSTFWIVLGGAFLVTSGTIYIRKTRKHHHHHHHHHHHH
For B1, the “lipoic acid released (LC-MS/MS) after incubation of the purified proteins at 37 C for 2 h” value [1] was “no lipoic acid was observed in the reaction mixtures containing EfLPA with Kgd2p or Lat1p individually”, the “lipoic acid released (LC-MS/MS) after incubation of the purified proteins at 37 C for 2 h” value [2] was “no lipoic acid was observed in the reaction mixtures containing EfLPA with Kgd2p or Lat1p individually” and the “lipoic acid released (LC-MS/MS, confirmed by GC-MS) after incubation of the purified proteins at 37 C for 2 h” value [3] was “Only the reaction of EfLPA with Gcv3p resulted in a peak with m/z 205.0360 (FIG. 5B) indicative of lipoic acid”.
